Reference: the DeepSol protein solubility set

experiment: soluble on expression in E. coli; label from the status in PepcDB or PDB records

Sequence | soluble on expression in E. coli
MVSSKLATPLSIQGEVIYPDDSGFDAIANIWDGRHLQRPSLIARCLSAGDVAKSVRYACDNGLEISVRSGGHNPNGYATNDGGIVLDLRLMNSIHIDTAGSRARIGGGVISGDLVKEAAKFGLAAVTGMHPKVGFCGLALNGGVGFLTPKYGLASDNILGATLVTATGDVIYCSDDERPELFWAVRGAGPNFGVVTEVEVQLYELPRKMLAGFITWAPSVSELAGLLTSLLDALNEMADHIYPSVFVGVDENRAPSVTVCVGHLGGLDIAERDIARLRGLGRTVSDSIAVRSYDEVVALNAEVGSFEDGMSNLWIDREIAMPNARFAEAIAGNLDKFVSEPASGGSVKLEIEGMPFGNPKRTPARHRDAMGVLALAEWSGAAPGSEKYPELARELDAALLRAGVTTSGFGLLNNNSEVTAEMVAEVYKPEVYSRLAAVKREYDPENRFRHNYNIDPEGS | soluble
MVSSLIRLRGGGLAEWNPEERPSIPAEIKRRVLVEAGHRCAIPTCRHIEVDIHHIVPWRTCQAHEYENLIALCPNCHRRADREEIDRKSLKLYKLNLRFVHEKYSQIEMDMLFDLARAPDGVGAPWTPFMLIFFKRVIDSGFVNVYELPGGIFVNGIKSSPSYLTITELGRNFISELGDRDLLALEHHHHHH | not soluble
MVVLNTPGKYQYDLRNHLLVNLFPIALDAEITTSNVNKHQLHRSNIPAALSGNSGITDYVPFSAERNAAMVIWRTAIDSRPAVCNDEEGTPGTL | not soluble
MVWDVETAKRFLEIIKDEPIYYPALIALHTGMRAGEILSLKWCDVNFETRVISIVKSERKNRGLKTVNLKTKTSKRAVYMNDILYKELKNLYEITKPKPDDFVCPRLPTGNLTVNYLSRKFKKLVKKHNFPLIRFHDLRHTFATLMLSLGVNTKIVAEILGHSDIKLTADTYSHVLPTMQEEAMKEFVKLWKLEHHHHHH | not soluble
MVWTYTYDLDNQLISANKTGSSNSLAYDGAGRLRQTTLAGTITGLTYDGVDLVAEYNSGGTLLRRYVHGPGVDEPLVWYEGTTTTNKTWLYQDQLGSVIGTANSAGTSTAIHSYGPYGEPNIATGIRFRYTGQQFLGSLNLYYYKARFYSPALGRFLQTDPIGIADDLNLYAYVGNNPINFNDPSGLSAAAASMLLGKLGSWGRENAGTLTEIGIGFTPAGFYTDLYSAVAGRTPITGDSLSGWERVAILIPGVSEIRNAGRIGSSIQGVAESTIKQVNPTNLIPTQTRSEMSGSQIKRLEKDMRTNGFDQNKPIDAVRRTDGRLEIQDGHHRVEAAKRAGIDQIPVQIWEKLEHHHHHH | not soluble
MVYFGRAKTLSHRHPNTGSGGCVFSLKTVLLYQQDSYLREFEARVEEASGGRVVLDRTAFHPGPHGGLDTDTGYIFYGDKRYRVVRAAVEGDVVAHYLDSDTATLEPGAVVKGVIDWERRYRMMRLHTFSHILAAVLYEKHDVLVTGGHITPDYGKDDFSIEGGGWREVIEEAFREANEIASRCIEVKVYWLPREEALKIPGIVKLANKLPPEVETLRIVEIPGVDVQADGGPHVRNTCEIGRVVITKLESKGKRRKRVYYTLEEALEPTPEAP | not soluble
MVYKTKLGEIEISDESIFTFEKGIPGFEHLRKFALVFPQETFPIGWLLSLEDSEVGLPVVDPKLVRADYDPAVPSEDLEEIEAENQEALLFFCVLTIPPGKPEKTTINLRAPIILNQKKKKGIQTILENEDYQLRHLLSEEIERSKTVVAAALEHHHHHH | soluble
MWAQKTLQLKARSRGFHLITDEIEQQLPQIHELSVGLLHLFIQHTSASLTLNENADPTVRMDMEAHFNKFVQERAPYYQHTYEGDDDMPAHIKASLLGSSVTIPIQNGRLALGTWQGIYLGEHRDFGGSRRIIATINGELEHHHHHH | soluble
MWDVIVVGGGPSGLSAALFLARAGLKVLVLDGGRSKVKGVSRVPNYPGLLDEPSGEELLRRLEAHARRYGAEVRPGVVKGVRDMGGVFEVETEEGVEKAERLLLCTHKDPTLPSLLGLTRRGAYIDTDEGGRTSYPRVYAAGVARGKVPGHAIISAGDGAYVAVHLVSDLRGEPYKDHAL | soluble
MWFFNKNLKVLAPCDGTIITLDEVEDEVFKERMLGDGFAINPKSNDFHAPVSGKLVTAFPTKHAFGIQTKSGVEILLHIGLDTVSLDGNGFESFVTQDQEVNAGDKLVTVDLKSVAKKVPSIKSPIIFTNNGGKTLEIVKMGEVKQGDVVAILK | soluble
MWFIMMDTKDPPTLLDLATQNLLSNEHAAIQALEEIPRELFVPLFTAAFTGRHKNILTAIVKAWPFACLHIGALSVQEPERELLKALIESLQFLLALNSATRSPKLRILDLRQDAGCKTVCPEISTNSTICFRSCAHSEHSIFKIEGQESLSSSKSEAQPSRLPMELIVDISLDGTLRERNFFALLQNKVEQSLGSLHLCCRDLQINNLCECRHALSHLDLKCVDHLAVDESPLTEVTKLLSHTIQLDSLSLSKIACRSLNGRTFRNFITQLSRMNHLKELSLSSFCLTDHLENVLRVLSADLEFLYLPFCGLSYSDFKFLSECSQVSHLKLLNVNNNPIYWEDCEPFYYLLQNVSSTLQHLKICYCFLTDSTISVLIPALTRCSQLRVLHFYSNQITMGMLMRILELLTPLKELKHVIYPIPVHCYGRWHFQGSLDRQKVEDVQRQLNLMLQEAERSDMNWITYSD | not soluble
MWGACKVKVHDSLATISITLRRYLRLGATMAKSKFEYVRDFEADDTCLAHCWVVVRLDGRNFHRFAEKHNFAKPNDSRALQLMTKCAQTVMEELEDIVIAYGQSDEYSFVFKRKTNWFKRRASKFMTHVASQFASSYVFYWRDYFEDQPLLYPPGFDGRVVVYPSNQTLKDYLSWRQADCHINNLYNTVFWALIQQSGLTPVQAQGRLQGTLAADKNEILFSEFNINYNNEPPMYRKGTVLIWQKVDEVMTKEIKLPTEMEGKKMAVTRTRTKPVPLHCDIIGDAFWKEHPEILDEDS | soluble
MWIGMRDKWKGVGKVTQQEIIESLLQFINQETSTEEEFNEHALMLFAYQYENNLPYRTYCMQKGKTARTVKTWRDIPAVPINAFKELTLSCVSPEQAERVFMTSGTTRGVRGKHYHPTLSVYDHSMIVNFRKRFMKERDKIKMGILFPTEEHMPNSSLAHYLALAVNVFGTEDSHYLVDRDGLNMDRLLAELEQAEQSGEPYALLGASFSFVHVFEELAKRGKTFRLPEGSRILDTGGFKNQSREMDLDEFYDTLSAYLGVPRRECINMYGMTELSTQFYDDGNETVPSVKSGPHWIRTRVIHPLTGEEMPKGKRGVLVHCDLGNFNSVTTILTEDMGVETDGGFLLLGRVQGAEAKGCSMAVEEFIRAAKGTSELEHHHHHH | not soluble
MWKITENLYLAQLPMIVGPTSKQEFSKNDIKRVLTLTTEPISEKQKIGGVDYKFLHLLDMPDEPILDNAILETAVLYINEGVEKEENVGVHCLAAVSRSVSICAAYLMYKNQWPVEKALKMIESVRKTIGPNAGFLAQLKIWERSGMSFSADQYKNLKIDIPGITCVDSKTIWRQPVIDDQTKVRFKCRQCRKVIFNSDNIVHPLAEACQKYLIEPMAWLNVSGATCSVSHTCGAKLGTFIASGSKCNGCNKFVRQWIFINRTKLDKVEIAT | not soluble
MWKRLCAGLSCRKFINQVTMTSVNKNRKSRDENEMAKYNEKELADTSKFLSFVLRHKPEAIGIVLDREGWADIDKLILCAQKAGKRLTRALLDTVVATSDKKRFSYSSDGRCIRAVQGHSTSQVAISFAEKTPPQFLYHGTASRFLDEIKKQGLIAGERHYVHLSADEATARKVGARHGSPVILTVKAQEMAKRGLPFWQAENGVWLTSTVAVEFLEW | soluble
MWMKDPVARPLSPTRLQPALPPEAQSVPELEEVARVLAEIPRPLKRRGSMEQAPAVALPPTHKKQYQQIISRLFHRHGGPGPGGRSQSCPPSLRDLRPGQGPLLLPHQLPFHRPAPSQSSPPEQPQSMEMRSVLRKAGSPRKARRARLNPLVLLLDAALTGELEVVQQAVKEMNDPSQPNEEGITALHNAICGANYSIVDFLITAGANVNSPDSHGWTPLHCAASCNDTVICMALVQHGAAIFATTLSDGATAFEKCDPYREGYADCATYLADVEQSMGLMNSGAVYALWDYSAEFGDELSFREGESVTVLRRDGPEETDWWWAALHGQEGYVPRNYFGLFPRVKPQRSKV | soluble
MWPDNRIARDAHYLYRYDRHGRLTEKTDLIPEGVIRTDDERTHRYHYDSQHRLVHYTRTQYAEPLVESRYLYDPLGRRVAKRVWRRERDLTGWMSLSRKPQVTWYGWDGDRLTTIQNDRTRIQTIYQPGSFTPLIRVETATGELAKTQRRSLADTLQQSGGEDGGSVVFPPVLVQMLDRLESEILADRVSEESRRWLASCGLTVEQMQNQMDPVYTPARKIHLYHCDHRGLPLALVSTEGATEWCAEYDEWGNLLNEENPHQLQQLIRLPGQQYDEESGLYYNRHRYYDPLQGRYITQDPIGLKGGWNFYQYPLNPVQYIDSMGLASKYGHLNNGGYGARPNKPPTPDPSKLPDIAKQLRLPYPIDQASSAPNVFKTFFRALSPYDYTLYCRKWVKPNLTCTPQDDSQYPGMDTKTASDYLPQTNWPTTQLPPGYTCAEPYLFPDINKPDGPATAGIDDLGEILAKMKQRTSRGIRKLEHHHHHH | not soluble
MWPPCFWWRTSPACAWGCGWPSRGRGTGFWRRPPRRRPWPLLREAELVVLDWMLPDEPGVRLLDRMRQGPYESLPVLMLTARAGVRDRVEGLSRGADDYLVKPFAVEELLARLEALLRRAGKRKVLRRGPLLLDLERMEARLEGNPLPLTRREFALLAYLAERPGRVCTREELLEAVWGPDYLGTPRTVDQHVLQLREKLGEDPKAPRFLETVRGVGYRFREEA | soluble
MWPPNAENNHCNYSYHEHAELNPHDHYHHHHYPHSSVHHTECYQTLSCPSDLPVETSYYNSVPPSYQDLGQTDLSPQFWCAEVDCVHERCSTKEIPHEQSKIFEEISKECDHIMNSAGDCEKCQVEHENGAQEAIPINDLVDIVMQTVDNLKKEGSSNDETKLLSRKRQQNKVAAARYRDKQKAKWQDLLDQLEAEEDRNQRLKLQAGHLEKEVAEMRQAFLAKLAKK | not soluble
MWQCHLSAQDYRYYPVDGYSLLKRFPLHPLTGPRCPVQTVGQWLESIGLPQYENHLMANGFDNVQFMGSNVMEDQDLLEIGILNSGHRQRILQAIQLLPKMRPIGHDGYHPTSVAEWLDSIELGDYTKAFLINGYTSMDLLKKIWEVELINVLKINLIGHRKRILASLGDRLHDDPPQKPPRSITLRTGDWGEPSITLRPPNEATASTPVQYWQHHPEKLIFQSCDYKAFYLGSMLIKELRGTESTQDACAKMRANCQKSTEQMKKVPTIILSVSYKGVKFIDATNKNIIAEHEIRNISCAAQDPEDLSTFAYITKDLKSNHHYCHVFTAFDVNLAYEIILTLGQAFEVAYQLALQARKGGHSSTLPESFENKPSKPIPKPRVSIRKSVDLLHASHTGQEPSERHTEEALRKF | soluble
MWRLRMSLGISEAFDLRPDYIISVIKDTRAKLVGFQFPEGLKRKGPELAKKVEKATGAEIIISGDPCFGACDLDRTLLDHVDILFHFGHAELEDIRLSNKVYFIETRSSVDVLHVIEKAVPELKGQKIGLITTVQHVHKLPDVCGVLERMGKTCVIGRGDSRIAYAGQVLGCNFSAARDEDCDEYLYIGSGDFHPLGVALSTKKRVLAADPFSGEVREVDPSRILRQRSAVIAKSLDAQVFGIIVSSKNGQKRMELASSLKELAKKHGKESHLILIDLVTPDQLLQFKVDAFVNTACPRLAIDEVGRFPAPMLTPQEFEIVLGEREWEKLVLDEITEEPVLEHHHHHH | not soluble
MWRNSEERENRTSGRSQGSYQEIIGRTWIFRGAHRGRVNKKNIVWHELIGLKVRVVNSTHPGYVGIEGYVIDETRNMLVIAGENKVWKVPKDVCIFEFETWDGTKIKISGEKLVGRPEMRLKKRWRK | soluble
